The results in this text go back to patent publication US20240269276A1 (HARBOUR BIOMED SHANGHAI, published 2024).

Residue numbers refer to the chain shown, from its start.

The target in assay [1] is T1, human CD73 on CHO-K1 cells overexpressing human CD73 (human, UniProt P21589 27-549).
T1 construct: whole, on cells; also called CHO-K1-hCD73
T1 sequence (looked up): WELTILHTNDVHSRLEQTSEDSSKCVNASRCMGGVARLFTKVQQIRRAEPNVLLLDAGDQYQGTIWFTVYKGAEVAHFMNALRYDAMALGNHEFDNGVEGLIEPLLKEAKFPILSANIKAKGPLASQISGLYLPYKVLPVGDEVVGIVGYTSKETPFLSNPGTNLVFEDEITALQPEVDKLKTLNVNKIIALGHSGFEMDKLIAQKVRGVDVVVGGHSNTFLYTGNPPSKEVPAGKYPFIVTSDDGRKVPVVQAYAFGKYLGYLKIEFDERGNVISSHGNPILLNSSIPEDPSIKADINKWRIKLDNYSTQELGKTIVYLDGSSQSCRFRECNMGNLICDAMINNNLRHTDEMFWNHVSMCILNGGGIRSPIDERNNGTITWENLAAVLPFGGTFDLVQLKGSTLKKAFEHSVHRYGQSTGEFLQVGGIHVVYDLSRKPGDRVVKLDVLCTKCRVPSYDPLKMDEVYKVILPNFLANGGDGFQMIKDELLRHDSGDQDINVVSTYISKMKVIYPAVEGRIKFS
Kind of assay: flow cytometry on CHO-K1 cells overexpressing human CD73 (CHO-K1-hCD73). How it is done: (§1) In order to investigate the binding activity of the CD73×PD-L1 bispecific antibody to human CD73 and PD-L1, the binding experiment at the cellular level was performed using CHO-K1 cell strains overexpressing human CD73 or PD-L1 (CHO-K1-hCD73 or CHO-K1-hPD-L1). Briefly, the CHO-K1-hCD73 and CHO-K1-hPD-L1 cells were digested and resuspended in an F-12K complete medium, and the cell density was adjusted to 1×10⁶ cells/mL. The cells were seeded in a 96-well V-bottom plate (Corning, #3894) at 100 μL/well, followed by the addition at 100 μL/well and centrifugation at 500 g at 4° C. for 5 min, and then the supernatant was discarded. Antibodies were 3-fold diluted to a maximum final concentration of 50 nM, and a total of 8 concentrations were set. 100 μL of the diluted antibodies was added to the cells, and the cells were incubated away from light at 4° C for 1 h. Thereafter, the cells in each well were rinsed twice with 100 μL of pre-cooled PBS, and centrifuged at 500 g at 4° C. for 5 min, and then the supernatant was discarded. Then 100 μL of a fluorescent secondary antibody (goat anti-human IgG (H+L) secondary antibody, Alexa Fluor® 488 conjugate, Invitrogen, #A11013, diluted at the ratio of 1:1000) was added to each well. The plate was incubated away from light at 4° C. for 30 min. The cells in each well were then rinsed twice with 200 μL of pre-cooled PBS and centrifuged at 500 g at 4° C. for 5 min, and then the supernatant was discarded. Finally, the cells in each well were resuspended in 200 μL of pre-cooled PBS, and the fluorescence signal values were read using a BD FACS CANTOII.
On the technique in general: A flow cytometer gives signals particle by particle.

Assay [2] deals with T2, human PD-L1 on CHO-K1 cells overexpressing human PD-L1 (human, UniProt Q9NZQ7 19-290).
T2 construct: whole, on cells; also called CHO-K1/hPD-L1; CHO-K1-hPD-L1
As to the kind of experiment: flow cytometry on CHO-K1 cells overexpressing human PD-L1 (CHO-K1/hPD-L1) [continued) E]. Here is the method:
(§2) In the example, in order to study the in vitro binding activity of the PD-L1 antigen-binding protein to human/cynomolgus monkey PD-L1, cell-level binding experiments were performed using CHO-K1 cell strains overexpressing human PD-L1 (CHO-K1/hPD-L1, GenScript, M00543) or CHO-K1 cell strains overexpressing cynomolgus monkey PD-L1 (CHO-K1/cynoPD-L1, GenScript, M00573). Briefly, the PD-L1 cells were digested and resuspended in an F-12K complete medium, and the cell density was adjusted to 1×10⁶ cells/mL. The cells were seeded in a 96-well V-bottom plate (Corning, 3894) at 100 μL/well, followed by the addition of the test antigen-binding proteins serially diluted 5-fold with concentrations that were twice the final concentrations at 100 μL/well. The mixtures were well mixed. The highest final concentration of the antigen-binding proteins was 100 nM. A total of 8 concentrations were set. An isotype antibody hIgG1 iso was used as a control. The cells were incubated away from light at 4° C. for 1 h. Thereafter, the cells in each well were rinsed twice with 100 μL of pre-cooled PBS, and centrifuged at 500 g at 4° C. for 5 min, and then the supernatant was discarded. Then 100 μL of a fluorescent secondary antibody (goat anti-human IgG (H+L) secondary antibody, Alexa Fluor 488 conjugate, Invitrogen, A11013, diluted at the ratio of 1:1000) was added to each well. The plate was incubated away from light at 4° C. for 30 min. The cells in each well were then rinsed twice with 200 μL of pre-cooled PBS and centrifuged at 500 g at 4° C. for 5 min, and then the supernatant was discarded. Finally, a pre-cooled PBS was added at 200 μL/well to resuspend the cells. Fluorescence signal values were read using a BD FACS CANTOII. Fluorescence signal values were read using a flow cytometer BD FACS CANTOII or FACS ACEA, and the data were processed and analyzed using FlowJo v10 (FlowJo, LLC) software. The data were processed and analyzed by plotting using GraphPad Prism 8 software, and binding curves, EC50 values and other parameters were acquired through four-parameter nonlinear fitting.

The target of assay [3] is T3, human PD-L1 protein with histidine tag (ACROBiosystems #PD-1-H5258) (human, UniProt Q9NZQ7 19-238).
T3 construct: Bought protein; also called His PD-L1; human PD-L1 proteins; not shown: histidine tag
As to the kind of experiment: BLI (Octet Red96e); His-tagged human PD-L1 captured on HIS1K sensor, antibody at 60 nM; 1:1 fit. Here is the method: In this example, affinity determination was performed on the affinity-matured mutants of PR002082 using an Octet Red96e instrument. […] The binding kinetics between the antigen and the antibody was analyzed by the biolayer interferometry (BLI) technique using an Octet molecular interaction analyzer (ForteBio, model: Octet Red96e).
When the affinity of the antigen for the antibody was determined, the rotation speed of the sensor was set at 1000 rpm/min. The 2 HIS1K sensors placed in a column were first equilibrated for 10 min in test buffer, then His PD-L1 was captured with the HIS1K sensor at a capture height of 0.9-1.1 nm, then the HIS1K sensor was equilibrated for 2 min in the test buffer, then the HIS1K sensor was bound to the antigen-binding protein (60 nM and 0 nM) for 3 min, and finally the mixture was dissociated for 15 min. The HIS1K sensor was immersed in a 10 mM glycine solution (pH 1.5) for regeneration to elute the proteins bound to the sensor.
When data analysis was performed using Octet Data Analysis software (Fortebio, version 11.0), the reference signals were subtracted by a single reference mode (reference well), the data were fitted by a “1:1 Local/full fitting” method, and the kinetic parameters of the binding of the antigen to the antibody were calculated to obtain Kₒₙ (1/Ms) values, Kdis (1/s) values and KD (M) values.

Assay [4] addresses T4, cynomolgus monkey PD-L1 on CHO-K1 cells overexpressing cynomolgus monkey PD-L1 (cynomolgus monkey, UniProt G7PSE7 19-290).
T4 construct: also called CHO-K1/cynoPD-L1; GenScript M00573
Kind of assay: flow cytometry on CHO-K1/cynoPD-L1 cells. Here is the method: as §2

Assay [5] concerns the target T2, human PD-L1 on CHO-K1 cells …. As to the kind of experiment: flow cytometry on CHO-K1 cells overexpressing human PD-L1 (CHO-K1/hPD-L1) [continued) F]. Here is the method: as §2
Assay [6] shares this target. As to the kind of experiment: flow cytometry on CHO-K1 cells overexpressing human PD-L1 (CHO-K1-hPD-L1) [continued) F]. Here is the method:
as §1, with “The plate was incubated away from light at 4° C. for 30 min. The cells in each well were then rinsed twice with 200 μL of pre-cooled PBS and centrifuged at 500 g at 4° C. for 5 min, and then the supernatant was discarded.” left out

Assay [7] has the same target. As to the kind of experiment: flow cytometry on CHO-K1 cells overexpressing human PD-L1 (CHO-K1-hPD-L1) [continued) E]. Here is the method:
as §1, with “The plate was incubated away from light at 4° C. for 30 min. The cells in each well were then rinsed twice with 200 μL of pre-cooled PBS and centrifuged at 500 g at 4° C. for 5 min, and then the supernatant was discarded.” left out

For orientation: EC50 means the midpoint of the concentration-response curve. A word on the Kd: it is the equilibrium constant for the complex coming apart. A word on the koff: it is a measure of how fast the partners let go of each other. As a reminder, the kon is the second-order rate constant of association.

T3 sequence (Q9NZQ7 19-238 limits assumed): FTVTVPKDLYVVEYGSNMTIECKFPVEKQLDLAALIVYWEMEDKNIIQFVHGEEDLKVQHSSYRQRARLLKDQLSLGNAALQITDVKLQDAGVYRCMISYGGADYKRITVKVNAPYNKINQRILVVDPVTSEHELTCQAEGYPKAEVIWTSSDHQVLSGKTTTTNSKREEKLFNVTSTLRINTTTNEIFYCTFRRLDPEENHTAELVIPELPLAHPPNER
T2 sequence (Q9NZQ7 19-290): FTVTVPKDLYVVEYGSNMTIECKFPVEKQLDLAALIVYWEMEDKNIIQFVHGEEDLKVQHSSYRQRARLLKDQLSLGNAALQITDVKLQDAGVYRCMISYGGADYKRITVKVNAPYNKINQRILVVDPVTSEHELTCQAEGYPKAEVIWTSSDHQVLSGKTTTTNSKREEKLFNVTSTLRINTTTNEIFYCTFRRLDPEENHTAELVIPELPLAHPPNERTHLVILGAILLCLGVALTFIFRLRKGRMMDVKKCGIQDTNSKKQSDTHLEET
T4 sequence (G7PSE7 entry or part of it limits assumed): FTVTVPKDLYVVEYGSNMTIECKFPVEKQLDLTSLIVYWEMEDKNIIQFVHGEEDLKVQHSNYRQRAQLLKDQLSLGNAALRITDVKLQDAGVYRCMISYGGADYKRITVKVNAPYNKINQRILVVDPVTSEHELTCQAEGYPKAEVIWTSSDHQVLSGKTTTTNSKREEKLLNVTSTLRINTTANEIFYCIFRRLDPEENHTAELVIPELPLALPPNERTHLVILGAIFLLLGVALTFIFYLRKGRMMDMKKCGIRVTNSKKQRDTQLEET

B1: PR003836 (antibody, human IgG1, kappa, L234A L235A, V domains shown)
VH: QVQLVESGGGVVQPGRSLRLSCAASGFTFSSYDMHWVRQAPGKGLEWVASTWYDASKKYYADSVKGRFTISRDNSKNTLYLQMNSLRAEDTAVYYCAKGGDLLTGPNAFDIWGQGTMVTVSS
VL: DIQMTQSPSTLSASVGDRVTITCRASQSISSWLAWYQQKPGKAPKLLIYKASSLESGVPSRFSGSGSGTEFTLTISSLQPDDFATYYCQQYDNYENTFGQGTKLEIKR
notes: Anti-CD73 IgG (human IgG1 constant region, human Ig kappa), PTM removed; also called anti-CD73 antibody PR003836; anti-CD73 H2L2 antibody
For the molecule B1, the EC50 in assay [1] is 1.1 nM.

B2: PR005867 (antibody, human IgG1, V domains shown)
VH: QVQLVESGGGVVQPGMSLRLSCAASGFTFSSYGMYWVRQAPGKGQEWVAIIWYDGTKKHYADSVKGRFTISRDNSKNTLYLEMNSLRVEDTAVYYCAKNRAIFGVIPDDSDIRGQGTMVTVSS
notes: The HC entry is used
Regarding B2, in assay [2], the EC50 was 1.14 nM and the “Maximum MFI” value was 388000 MFI. In assay [3], this molecule displayed a Kd of 1.85 nM, a koff of 0.000468 s⁻¹ and a kon of 253000 M⁻¹ s⁻¹. Besides, the binding result in assay [4] was “binds”.

B3: PR005869 (antibody, human IgG1, V domains shown)
VH: B2 VH with I102L
notes: The HC entry is used
With B3, in assay [2], the midpoint of the response, the EC50, lay at 1.13 nM and the “Maximum MFI” value is 393000 MFI. In assay [3], the Kd was 1.09 nM, the koff was 0.000262 s⁻¹ and the kon is 241000 M⁻¹ s⁻¹. The binding result in assay [4] is “binds”.

B4: PR006247 (antibody, human IgG1, V domains shown)
VH: B2 VH with T28D, I50S, W52R, D54T, K57E, I102L, D109A
notes: The HC entry is used
For B4, in assay [3], the affinity, expressed as Kd, was 1.18 nM; the koff came to 0.000219 s⁻¹; the kon was found to be 185000 M⁻¹ s⁻¹. In addition, the binding result in assay [4] is “binds”. Also, in assay [5], the EC50 turned out to be 1.01 nM and the “Maximum MFI” value came to 410000 MFI.

B5: PR006245 (antibody, human IgG1, V domains shown)
VH: B2 VH with T28D, I50S, W52R, D54T, K57E, I106V, D109A
notes: The HC entry is used
On to B5, for which, in assay [3], the Kd was 1.09 nM, the dissociation rate constant (koff) came to 0.000162 s⁻¹ and the kon came to 149000 M⁻¹ s⁻¹. In addition, the binding result in assay [4] was “binds”. In assay [5], the concentration giving a half-maximal response (EC50) stood at 0.964 nM and the “Maximum MFI” value was found to be 405000 MFI.

B6: PR005868 (antibody, human IgG1, V domains shown)
VH: B2 VH with I102L, D109A
notes: The HC entry is used
Consider B6, for which, in assay [2], the EC50 came out at 1.06 nM and the “Maximum MFI” value worked out at 393000 MFI. In assay [3], this molecule registered a Kd of 1.92 nM, a koff of 0.000386 s⁻¹ and a kon of 201000 M⁻¹ s⁻¹. Also, the binding result in assay [4] is “binds”.

B7: PR004295 (bispecific antibody, human IgG1, kappa, L234A L235A)
heavy: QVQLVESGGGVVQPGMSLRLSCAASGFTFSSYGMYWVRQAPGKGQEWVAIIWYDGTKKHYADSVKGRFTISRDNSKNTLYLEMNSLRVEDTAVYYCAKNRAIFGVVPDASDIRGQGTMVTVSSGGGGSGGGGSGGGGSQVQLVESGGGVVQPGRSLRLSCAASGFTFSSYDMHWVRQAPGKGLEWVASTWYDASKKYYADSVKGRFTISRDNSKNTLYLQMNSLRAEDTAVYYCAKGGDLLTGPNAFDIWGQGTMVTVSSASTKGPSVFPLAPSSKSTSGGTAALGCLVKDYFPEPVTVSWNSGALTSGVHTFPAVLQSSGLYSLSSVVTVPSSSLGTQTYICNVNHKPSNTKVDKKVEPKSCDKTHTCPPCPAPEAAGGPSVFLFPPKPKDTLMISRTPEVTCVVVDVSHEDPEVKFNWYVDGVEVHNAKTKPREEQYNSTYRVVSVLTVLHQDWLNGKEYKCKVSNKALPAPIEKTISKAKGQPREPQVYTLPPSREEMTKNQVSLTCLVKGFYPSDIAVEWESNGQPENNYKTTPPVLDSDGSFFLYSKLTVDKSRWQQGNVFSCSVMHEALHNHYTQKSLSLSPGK
light: DIQMTQSPSTLSASVGDRVTITCRASQSISSWLAWYQQKPGKAPKLLIYKASSLESGVPSRFSGSGSGTEFTLTISSLQPDDFATYYCQQYDNYENTFGQGTKLEIKRTVAAPSVFIFPPSDEQLKSGTASVVCLLNNFYPREAKVQWKVDNALQSGNSQESVTEQDSKDSTYSLSSTLTLSKADYEKHKVYACEVTHQGLSSPVTKSFNRGEC
notes: light chain of PR003836; also called CD73×PD-L1 bispecific antibody PR004295
Turning to B7, the EC50 in assay [6] is 2.17 nM; in assay [1], 2.09 nM.

B8: PR003739 (bispecific antibody, human IgG1, kappa, L234A L235A)
heavy: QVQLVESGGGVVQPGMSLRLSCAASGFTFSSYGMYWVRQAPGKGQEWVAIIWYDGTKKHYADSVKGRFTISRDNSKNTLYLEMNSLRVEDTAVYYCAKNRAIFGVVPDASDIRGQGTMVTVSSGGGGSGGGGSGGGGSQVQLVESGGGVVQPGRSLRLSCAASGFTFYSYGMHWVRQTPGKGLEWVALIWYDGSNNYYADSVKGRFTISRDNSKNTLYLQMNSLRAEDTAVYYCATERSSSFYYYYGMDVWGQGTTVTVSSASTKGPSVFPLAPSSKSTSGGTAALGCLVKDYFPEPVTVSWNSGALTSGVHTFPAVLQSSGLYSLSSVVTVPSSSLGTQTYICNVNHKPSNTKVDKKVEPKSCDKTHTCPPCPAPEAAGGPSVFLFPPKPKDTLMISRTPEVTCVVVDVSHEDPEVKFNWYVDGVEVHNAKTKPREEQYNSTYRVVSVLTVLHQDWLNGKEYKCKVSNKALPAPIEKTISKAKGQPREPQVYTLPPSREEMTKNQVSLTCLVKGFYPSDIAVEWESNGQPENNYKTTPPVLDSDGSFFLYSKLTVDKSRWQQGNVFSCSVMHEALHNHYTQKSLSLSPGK
light: DIQLTQSPSFLSTSVGDRVTITCRASQGISSYLAWYQQKPGKAPKLLIYAASTLQSGVPSRFSGSGSGTEFTLTISSLQPEDFATYYCQQLNSYPYTFGQGTELEIKRTVAAPSVFIFPPSDEQLKSGTASVVCLLNNFYPREAKVQWKVDNALQSGNSQESVTEQDSKDSTYSLSSTLTLSKADYEKHKVYACEVTHQGLSSPVTKSFNRGEC
notes: light chain of PR001408; also called CD73×PD-L1 bispecific antibody PR003739
In the case of B8, the results for the EC50 in assay [1] and in assay [7] were 0.99 nM and 1.66 nM, respectively.

B9: PR001408 (antibody, human IgG1, kappa, L234A L235A, V domains shown)
VH: QVQLVESGGGVVQPGRSLRLSCAASGFTFYSYGMHWVRQTPGKGLEWVALIWYDGSNNYYADSVKGRFTISRDNSKNTLYLQMNSLRAEDTAVYYCATERSSSFYYYYGMDVWGQGTTVTVSS
VL: DIQLTQSPSFLSTSVGDRVTITCRASQGISSYLAWYQQKPGKAPKLLIYAASTLQSGVPSRFSGSGSGTEFTLTISSLQPEDFATYYCQQLNSYPYTFGQGTELEIKR
notes: Anti-CD73 IgG (human IgG1 constant region, human Ig kappa), PTM removed; also called anti-CD73 antibody PR001408; anti-CD73 H2L2 antibody
In the case of B9, the midpoint of the response in assay [1], the EC50, lay at 0.342 nM.
